Results as given in patent US20250122301A1 (IBIO, published 2025).

T1: CD25 on CD25+ cells (SUDHL-1, HEK IL-2 reporter cells, primary human regulatory T cells) (human, UniProt P01589 22-272)
T1 construct: whole, on cells; also called IL-2Ralpha
T1 sequence (looked up): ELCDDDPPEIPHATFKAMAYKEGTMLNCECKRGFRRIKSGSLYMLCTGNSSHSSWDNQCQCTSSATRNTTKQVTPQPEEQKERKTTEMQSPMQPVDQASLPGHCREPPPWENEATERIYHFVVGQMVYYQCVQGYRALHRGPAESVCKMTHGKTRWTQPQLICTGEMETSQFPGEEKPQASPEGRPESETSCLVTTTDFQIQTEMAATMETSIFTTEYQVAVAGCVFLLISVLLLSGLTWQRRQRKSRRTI


Target: T1, CD25 on CD25+ cells (SUDHL-1, HEK IL-2 …)
Experiment: flow cytometry, dose response on CD25+ SUDHL-1 cells;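 note: antibody binding to cells read as median fluorescence intensity of an AF647 anti-human Fc secondary, DAPI+ dead cells excluded, 20 min on ice, 5-fold dilutions from 10 ug/mL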
Experimental: For each cell line, 100,000 cells were plated in a 96 well round bottom plate in cell buffer (PBS+2% HI FBS) and centrifuged. Antibody concentrations from 1-10 ug/mL were used to test the binding of each antibody. Cell were resuspended in 100 uL of antibodies/well and incubated for 20 minutes on ice. After incubation, cells were centrifuged at 300×g for 5 minutes at room temperature, and resuspended and washed with ice cold cell buffer. Cells were then stained with an anti-human Fc secondary antibody conjugated to AF647 (Biolegend) and incubated on ice for 20 min in the dark. Cells were centrifuged, washed and resuspended in cold cell buffer with DAPI and analyzed using flow cytometry (Cytoflex, Becton Dickinson). DAPI+ cell were excluded from analysis. The mean fluorescence intensity was calculated using the median (FlowJo, TreeStar).

| Binder | EC50 [µg/mL] |
| --- | --- |
| D5 (human IgG1 reformatted) (antibody, V domains shown) VH: QVQLQQSGAELVRPGTSVKISCKASGYTFTNYWLGWVKQRPGHGLEWIGDIYPGGGYTNYNEKFKGKATLTADTSSSTAYMQLSSLTSEDSAVYFCARVTPASWGQGTSLTVSS VL: DIVMTQSQKFMSTSVGDRVSVTCKASQNVGTNVAWYQQKPGQSPKALIYSASYRYSGVPDRFTGSGSGTDFTLTISNVQSEDLAEYFCQQYNSYPYTFGGGTKLEMK | 0.603 |
| AH04524 (human IgG1 reformatted) (antibody, V domains shown, also called AH4524) VH: QIQLQQSGAELVRPGTSVKMSCKAAGYTFTNYWIGWVKQRPGHGLEWIGDIHPGGDYSNYNEKFKGKATLTADTSSSTAYMSLSSLTSEDSAIYYCTSRNFAYWGQGTLVTVSA VL: DIVMTQSQKFMSTSVGDRVSVTCKASQNVGTNVAWYQQKPGQSPKALIYSASYRYSGVPDRFTGSGSGTDFTLTISNVQSEDLAEYFCQQYNSYPYTFGGGTKLEIK | 0.116 |
| AH04527 (human IgG1 reformatted) (antibody, V domains shown) VH: QVQLQQSGAELVRPGTSVKMSCKAAGYTFTNYWIGWVKQRPGHGLEWIGDIHPGGGYIDYNEKFTGKATLTADTSSSTAYMQLSSLTSEDSAIYYCVSRNFAKWGQGTLVTVSA VL: DVVMTQSQKFMSTSVGDRVSVTCKASQNVGTNVAWYQQKPGQSPKALIYSASYRYSGVPDRFTGSGSGTDFTLTISNVQSEDLAEYFCQQYNSYPYTFGGGTKLEIK | 0.0959 |
| AH05274 (human IgG1 reformatted) (antibody, V domains shown) VH: QVQLQQSGAELVRPGTSVKISCKASGYTFTNYWLGWIKQRPGHGLEWIGDIYPGGGYTNYNEKFKGKATLTADTSSSTAYMQLSSLTSEDSAVYFCARVTPASWGQGTSLTVSS VL: DIQMTQSQKFMSTSVGDRVSVTCKASQNVGTNVAWYQQKPGQSPKALIYSASYRYSGVPDRFTGSGSGTDFTLTISNVQSEDLAEYFCQQYNSYPYTFGGGTKLEIK | 0.228 |
| AH04523 (human IgG1 reformatted) (antibody, V domains shown, also called AH4523) VH: QIQLQQSGAELVRPGTSVKMSCKAAGYTFTNYWIGWVKQRPGHGLEWIGDIHPGGSYTNYNENFKGKATFTADTSSSTTYMQLSSLTSEDSAIYFCTSRNFAKWGQGTPVTVSS VL: DIVLTQSQKFMSTSVGDRVSVTCKASQNVGTNVAWYQQKPGQSPKALIYSASYRYSGVPDRFTGSGSGTDFTLTISNVQSEDLAEYFCQQYNSYPYTFGGGTKLEIK | 0.108 |
| BP003-T2P1C4 (human IgG1 reformatted) (antibody, V domains shown) VH: QVQLQQSGAELVRPGTSVKISCKASGYTFTNYWLGWVKQRPGHGLEWIGDIYPGGGYTNYNEKFKGKATLTADTSSSTAYMQLSSLTSEDSAVYFCARVTPASWGQGTTVTVSS VL: DIQMTQSQKFMSASVGDRVSVTCKASQNVGTNVAWYQQKPGQSPKALIYSASYRYSGVPDRFTGSGSGTDFTLTISNVQSEDLAEYFCQQYNSYPYTFGGGTKLEMK | 0.294 |
| AH04511 (human IgG1 reformatted) (antibody, V domains shown, also called AH4511) VH: QIQLQQSGAELVRPGTSVKMSCKAAGYTFSNYWIGWVKQRPGHGLEWIGDIHPGGGYINYNEKFTGKATLTADTSSSTAYMQLSSLTSEDSAIYYCVSRNFANWGQGTLVTVSA VL: DIVMSQSQKFMSTSVGDRVSVTCKASQNVGTNVAWYQQKPGQSPKALIYSASYRYSGVPDRFTGSGSGTDFTLTISNVQSEDLAEYFCQQYNSYPYTFGGGTKLEIK | 0.108 |
| D17 (human IgG1 reformatted) (antibody, V domains shown) VH: QIQLQQSGAELVRPGTSVKISCKASGYTFTNYWLGWVKQRPGHGLEWIGDIYPGGGYTNYNEKFKGKATLTADTSSSTAYMQLSSLTSEDSAVYFCARVTPASWGQGTTLTVSA VL: DILLTQSQKFMSTSVGDRVSVTCKASQNVGTNVAWYQQKPGQSPKALIYSASYRYSGVPDRFTGSGSGTDFTLTISNVQSEDLAEYFCQQYNSYPLTFGGGTKLEIK | 0.0957 |
| BP003-T2P1D10 (human IgG1 reformatted) (antibody, V domains shown) VH: QIQLQQPGAELVRPGTSVKISCKASGYTFTNYWLGWVKQRPGHGLEWIGDIYPGGGYTNYNEKFKGKATLTADTSSSTAYMQLSSLTSEDSAVYFCARVTPASWGQGTSLTVSS VL: DIVITQSQKFMSTSVGDRVSVTCKASQNVGTNVAWYQQKPGQSPKALIYSASYRYSGVPDRLTGSGSGTDFTLTISNVQSEDLAEYFCQQYNRYPYTFGGGTKLEIK | 0.165 |
| AH04522 (human IgG1 reformatted) (antibody, V domains shown) VH: QIQLQQSGAELVRPGTSVKMSCKAAGYTFTNYWIGWVKQRPGHGLEWIGDIHPGGGYTNYNEKFKGKATLTADTSSSTAYMQLSSLTSEDSAIYYCTSRNFAYWGQGTLVTVSA VL: DTTVTQSQKFMSTSVGDRVSVTCKAGQNVGTNVAWYQQKPGQSPKALIYSASYRYSGVPDRFTGSGSGTDFTLTISNVQSEDLAEYFCQQYNSYPYTFGGGTKLEIK | 0.11 |
| AH04503 (human IgG1 reformatted) (antibody, V domains shown, also called AH4503) VH: QVQLQQPGAELVRPGTSVKMSCKAAGYTFSNYWIGWVKQRPGHGLEWIGDIHPGGGYINYNEKFTGKATLTADTSSSTAYMQLSSLTSEDSAIYYCVSRNFANWGQGTLVTVSA VL: DIQMTQSQKFMSTSVGDRVSVTCKASQNVGTNVAWYQQKPGQSPKALIYSASYRYSGVPDRFTGSGSGTDFTLTISNVQSEDLAEYFCQQYNSYPWTFGGGTKLEIK | 0.145 |
| AH04525 (human IgG1 reformatted) (antibody, V domains shown, also called AH4525) VH: QVQLQQSGAELVRPGTSVKMSCKAAGYTFTNYWIGWIKQRPGHGLEWIGDIHPGGDYTNYNEKFKGKATLTADTFSSTAYMQLSSLTSEDSAIYYCTGRNFAYWGQGTLVTVSS VL: DNVLTQSQKFMSTSVGDRVSVTCKASQNVGTNVAWYQQKPGQSPKALIYSASYRYSGVPDRFTGSGSGTDFTLTISNVQSEDLAEYFCQQYNSYPYTFGGGTKLEMK | 0.109 |
| AH04501 (human IgG1 reformatted) (antibody, V domains shown, also called AH4501) VH: QVQLQQPGAELVRPGTSVKMSCKAAGYTFTNYWIGWVKQRPGHGLEWIGDIHPGGDYSNYNEKFKGKATLTADTSSSTAYMNLSSLTSEDSAIYYCTSRNFAYWGQGTLVTVSA VL: DVVMTQTQKFTSTSVGDRVSVTCKASQNVGTNVAWYQQKPGQSPKALIYSASYRYSGVPDRFTGSGSGTDFTLTISNVQSEDLAEYFCQQYNSYPYTFGGGTKLEIK | 0.159 |
| AH04518 (human IgG1 reformatted) (antibody, V domains shown, also called AH4518) VH: QVQLQQSGAELVRPGTSVKMSCKAAGYTFTNYWIGWVKQRPGHDLEWIGDIHPGGDYSNYNEKFKGKATLTADTSSSTAYMNLSSLTSEDSAIYYCTSRNFAYWGQGTLVTVSA VL: DILLTQSQKFMSTSVGDRVSVTCKASQNVGTNVAWYQQKPGQSPKALIYSASYRYSGVPDRFTGSGSGTDFTLTISNVQSEDLAEYFCQQYNSYPYTFGGGTKLEIK | 0.114 |
| AH04502 (human IgG1 reformatted) (antibody, V domains shown, also called AH4502) VH: QIQLQQSGAELVRPGTSVKMSCKAAGYTFTNYWIGWVKQRPGHGLEWIGDIHPGGGYTNYNEKFKGKATLTADTSSSTADMQLSSLTSEDSAIYYCTSRNFAYWGQGTLVTVSA VL: DIVMTQSQKFMSTSVGDRVSVTCKASQNVGINVAWYQQKPGQSPKALIYSASYRYSGVPDRFTGSGSGTDFTLTISNVQSEDLAEYFCQQYNSYPYTFGGGTKLEIK | 0.109 |
| AH04507 (human IgG1 reformatted) (antibody, V domains shown) VH: QVQLQQSGAELVRPGTSVKMSCKAAGYTFTNYWIGWVKQRPGHGLEWIGDIHPGGGYIDYNEKFTGKATLTADTSSSTAYMQLSSLTSEDSAIYYCVSRNFAKWGQGTLVTVSA VL: DTTVTQSQKFMSTSVGDRVSVTCKASQNVGTNVAWYQQKPGQSPKALIYSASYRYSGVPDRFTGSGSGTDFTLTISNVQSEDLAEYFCQQYNSYPYTFGGGTKLEIK | 0.089 |
| AH04526 (human IgG1 reformatted) (antibody, V domains shown) VH: QVQLQQSGAELVRPGTSVKMSCKAAGYTFTNYWIGWVKQRPGHGLEWIGDIHPGGDYSNYNEKFKGKATLTADTSSSTAYMNLSSLTSEDSAIYYCTSRNFAYWGQGTPVTVSS VL: DTTVTQSQKFMSTSVGDRVSVTCKASQNVGTNVAWYQQKPGQSPKALIYSASYRYSGVPDRFTGSGSGTDFTLTISNVQSEDLAEYFCQQYNSYPYTFGGGTKLEMK | 0.164 |
| AH04505 (human IgG1 reformatted) (antibody, V domains shown, also called AH4505) VH: DVQLQQSGAELVRPGTSVKMSCKAAGYTFTNYWIGWVKQRPGHGLEWIGDIHPGGGYTNYNEKFKGKATLTADTSSSTAYMQLSSLTSEGSAIYYCTSRNFAYWGQGTLVTVSA VL: DTTVTQSQKFMSTSVGDRVSVTCKASQNVGTNVAWYQQKPGQSPKALIYSASYRYSGVPDRFTGSGSGTDFTLTISNVQSEDLAEYFCQQYNSYPYTFGGGTKLEMK | 0.106 |
| AH05256 (human IgG1 reformatted) (antibody, V domains shown) VH: QVQLQQPGAELAKPGASVKMSCKASGYTFTRYWIHWVKQRPGQDLEWIGYINPRTDYTEYNQKFKDKATLTADKSSSTAYMQLSSLTSDDSAVYYCARHGYFDYWGQGTTLTVSS VL: DIQMTQTTSSLSASLGDRVTISCRASQDISNYLNWYQQKPDGTVKLLIYHTSRLQSGVPSRFTGSGSGTDYSLTISNLEQEDIATYFCQQSNSLPPTFGGGTKLEIK | 0.0715 |
| AH05259 (human IgG1 reformatted) (antibody, V domains shown) VH: QVQLQQSGAELVRPGVSVKISCKGSGYTFTDYAMHWVKQSHAKSLEWIGVISTYSGDVSYNQKFKGKATMTVDKSSSTAYMELARLTSEDSAIYYCARGVTFDSWGQGTSLTVSS VL: DIQMTQTPASLSASVGETVTITCRASENIYSFLEWFQQKQGKSPQLLVYNAKTLAEGVPSRFSVSGSGTQFSLKINSLQPEDFGSYYCQHHYGIPYTFGGGTKLEIK | 0.121 |
| D36 (human IgG1 reformatted) (antibody, V domains shown) VH: QVQLQQPGAELVRPGVSLKISCKGSGYTFTDYAMHWVRQSHAKSLEWIGVISTYSGDALYNQKFKGKATMTVDKSSSTAYLELARLTSEDSAIYYCARGVTFDYWGQGTTLTVSS VL: DVVMTQSPASLSASVGETVTITCRASENSYSYLEWYQQKQGKSPQLLVYNAKTLAEGVPSRFSGSGSGTQFSLKINSLQPEDFGTYYCQHHYGTPYTFGGGTKLEMK | 1.49 |
